From the RNAGym collection of RNA variant scans (doi:10.1093/molbev/msab373)

B1: Azoarcus group I ribozyme (parent)
chain: GUGCCUUGCGCCGGGAAACCACGCAAGGGAUGGUGUCAAAUUCGGCGAAACCUAAGCGCCCGCCCGGGCGUAUGGCAACGCCGAGCCAAGCUUCGGCGCCUGCGCCGAUGAAGGUGUAGAGACUAGACGGCACCCACCUAAGGCAAACGCUAUGGUGAAGGCAUAGUCCAGGGAGUGGCGAAAGUCACACAAACCGG

Variants of: B1
Assay: reverse-splicing fitness (ratio to wild type); higher = more active; in vitro selection; Mg2+ level not given
Outline: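 An in vitro group I ribozyme library with randomized positions was T7-transcribed and gel-purified. In triplicate, 10 pmol RNA in EPPS pH 7.5 was reacted with 50 pmoles of a 30-nt RNA substrate for 1 h at 37 °C across several added MgCl2 levels (1–48 mM), then stopped with EDTA. Products were reverse transcribed from a substrate-complementary primer, PCR-amplified and sequenced (HiSeq 4000). Fitness is a variant's read proportion after selection over that before, normalised to wild type.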

With C82G A111G C150G C169U U176C as the variant, how does the reverse-splicing fitness read?
The reverse-splicing fitness was 0.0165.

With C82G A111G C150G C169U U176A as the variant, how does the reverse-splicing fitness read?
Its reverse-splicing fitness is 0.00973.

With C82G A111G C150G C169U U176G as the variant, how does the reverse-splicing fitness read?
Its reverse-splicing fitness is 0.008.

Which reverse-splicing fitness does the source give for C82G A111U A120C A145C C150A C169G U176G here?
Its reverse-splicing fitness is 0.00687.

With C82G A111U A120C A145C C150A C169G U176A as the variant, how does the reverse-splicing fitness read?
The reverse-splicing fitness was 0.0314.

For C82G A111U A120C A145C C150A C169G U176C, which reverse-splicing fitness is on record?
Its reverse-splicing fitness is 0.0279.

For C82G A111U A120C A145G C150G C169G U176A, which reverse-splicing fitness is on record?
Its reverse-splicing fitness is 0.0117.

For C82G A111U A120C A145G C150G C169G U176G, which reverse-splicing fitness is on record?
The reverse-splicing fitness was 0.00661.

With C82G A111U A120C A145G C150G C169G U176C as the variant, how does the reverse-splicing fitness read?
Its reverse-splicing fitness is 0.0139.

For C82G A111U A120C A145G C150A C169G U176G, which reverse-splicing fitness is on record?
The reverse-splicing fitness was 0.00823.

Which reverse-splicing fitness does the source give for C82G A111U A120C A145G C150A C169G U176C here?
The reverse-splicing fitness was 0.0297.

With C82G A111U A120C A145G C150A C169G U176A as the variant, how does the reverse-splicing fitness read?
The reverse-splicing fitness was 0.0181.

For C82G A111U A120C A145G C150A C169U U176A, which reverse-splicing fitness is on record?
The reverse-splicing fitness was 0.0148.

With C82G A111U A120C A145G C150A C169U U176C as the variant, how does the reverse-splicing fitness read?
The reverse-splicing fitness was 0.0159.

Which reverse-splicing fitness does the source give for C82G A111U A120C A145G C150A C169U U176G here?
The reverse-splicing fitness was 0.00802.

For C82G A111U A120C C150A C169A U176A, which reverse-splicing fitness is on record?
Its reverse-splicing fitness is 0.0237.

For C82G A111U A120C C150A C169A U176G, which reverse-splicing fitness is on record?
The reverse-splicing fitness was 0.00867.

For C82G A111U A120C C150A C169A U176C, which reverse-splicing fitness is on record?
Its reverse-splicing fitness is 0.0217.

Which reverse-splicing fitness does the source give for C82G A111G A145U C169U U176A here?
The reverse-splicing fitness was 0.0142.

With C82G A111G A145U C169U U176C as the variant, how does the reverse-splicing fitness read?
The reverse-splicing fitness was 0.0127.

For C82G A111G A145U C169U U176G, which reverse-splicing fitness is on record?
Its reverse-splicing fitness is 0.00489.

With C82G A111U A120C A145C C150U U176C as the variant, how does the reverse-splicing fitness read?
Its reverse-splicing fitness is 0.0178.

Which reverse-splicing fitness does the source give for C82G A111U A120C A145C C150U U176A here?
The reverse-splicing fitness was 0.0111.

For C82G A111U A120C A145C C150U U176G, which reverse-splicing fitness is on record?
Its reverse-splicing fitness is 0.00601.

Which reverse-splicing fitness does the source give for C82G A111U A120C A145U C150A C169U U176G here?
The reverse-splicing fitness was 0.00715.

Which reverse-splicing fitness does the source give for C82G A111U A120C A145U C150A C169U U176C here?
Its reverse-splicing fitness is 0.0141.

With C82G A111U A120C A145U C150A C169U U176A as the variant, how does the reverse-splicing fitness read?
The reverse-splicing fitness was 0.0146.

For C82G A111G C169A U176G, which reverse-splicing fitness is on record?
The reverse-splicing fitness was 0.00537.

Which reverse-splicing fitness does the source give for C82G A111G C169A U176C here?
The reverse-splicing fitness was 0.0224.

With C82G A111G C169A U176A as the variant, how does the reverse-splicing fitness read?
Its reverse-splicing fitness is 0.0162.

With C82G A111U A120C A145G C150A U176C as the variant, how does the reverse-splicing fitness read?
Its reverse-splicing fitness is 0.0228.

For C82G A111U A120C A145G C150A U176A, which reverse-splicing fitness is on record?
The reverse-splicing fitness was 0.011.

Which reverse-splicing fitness does the source give for C82G A111U A120C A145G C150A U176G here?
Its reverse-splicing fitness is 0.0103.

For C82G A111G C150A C169A U176C, which reverse-splicing fitness is on record?
Its reverse-splicing fitness is 0.0224.

For C82G A111G C150A C169A U176G, which reverse-splicing fitness is on record?
Its reverse-splicing fitness is 0.00701.

Which reverse-splicing fitness does the source give for C82G A111G C150A C169A U176A here?
Its reverse-splicing fitness is 0.0211.

For C82G A111U A120C A145U C150G C169A U176A, which reverse-splicing fitness is on record?
The reverse-splicing fitness was 0.0121.

With C82G A111U A120C A145U C150G C169A U176C as the variant, how does the reverse-splicing fitness read?
Its reverse-splicing fitness is 0.0107.

For C82G A111U A120C A145U C150G C169A U176G, which reverse-splicing fitness is on record?
Its reverse-splicing fitness is 0.00704.

For C82G A111G A145U C150U C169U U176A, which reverse-splicing fitness is on record?
The reverse-splicing fitness was 0.0134.

With C82G A111G A145U C150U C169U U176C as the variant, how does the reverse-splicing fitness read?
The reverse-splicing fitness was 0.0137.
